Tests used:
[1] = target: putative CXCL14 receptor (CXCL14-binding cell surface protein(s)) on breast epithelial and breast cancer cells; assay: Scatchard analysis of AP-CXCL14 binding to MDA-MB-231 cells in suspension, bound AP activity; high affinity site
[2] = target: putative CXCL14 receptor (CXCL14-binding cell surface protein(s)) on breast epithelial and breast cancer cells; assay: Scatchard analysis of AP-CXCL14 binding to MDA-MB-231 cells in suspension, bound AP activity; low affinity site

Kd [1]: 61 nM | Kd [2]: 567 nM
Substance: alkaline phosphatase-CXCL14 (AP-CXCL14) fusion protein, AP located N-terminal of the CXCL14 (from UniProt O95715 35-111) (ligand)
